The record followed here is patent publication US20190338048A1.

Where two headings read alike, the source gives them in different places.

In test [1] the target is Recombinant human IL-17A (human) (UniProt Q16552). Description: SPR. Background: Surface plasmon resonance follows binding to a sensor surface in real time, without labels.
Test [2] shares this target. Put plainly: SPR, IL-17A immobilised, purified Fab injected.
Test [3] concerns the target CAT-2200 Fab heavy chain S188K. Description: LCCA.
The target of test [4] is CAT-2200 heavy chain Fab construct (H1) S186R. Put plainly: LCCA, SPR tag read-out.
Test [5] addresses CAT-2200 heavy chain Fab construct (H1) Q39K. Put plainly: LCCA, SPR tag read-out.
The target in test [6] is Pertuzumab kappa light chain P44F_S131R_V133G_S176R. Description: LCCA, SPR tag read-out.
Test [7] has as its target Pertuzumab kappa light chain P44F_V133G_S176D_T180E. Description: LCCA, SPR tag read-out.
Test [8] shares this target. Description: LCCA, SPR tag read-out. The source holds these as a separate data set.
Test [9] has as its target CAT-2200 lambda light chain E124Q_T131R. Put plainly: LCCA, SPR tag read-out.
The target of test [10] is Pertuzumab kappa light chain P44F_Q124R_T178R. Put plainly: LCCA, SPR tag read-out.
The target in test [11] is Pertuzumab kappa light chain S131K_V133G_S176R_T178A. Put plainly: LCCA, SPR.
Test [12] concerns the target Pertuzumab kappa light chain S131R_V133G_S176R_T178A. Description: LCCA, SPR.
In test [13] the target is CAT-2200 lambda light chain K129T_V133D. Put plainly: LCCA, SPR.
The target is the same in test [14]. Put plainly: LCCA, SPR. The source holds these as a separate data set.
Test [15] has as its target Pertuzumab kappa light chain S131R_V133S_L135K. Description: LCCA, SPR.
The target of test [16] is Pertuzumab kappa light chain Q124E_V133G_S176D_T178D. Put plainly: LCCA.
For test [17], the target named is Pertuzumab kappa light chain V133G_S176D_T180E (L2), N-terminal HA tag. Put plainly: LCCA, SPR of light chain tags.
Test [18] has as its target CAT-2200 lambda light chain S176K_Y178L (L1), N-terminal FLAG tag. Description: LCCA, SPR of light chain tags.
Test [19] deals with CAT-2200 lambda light chain S176K_Y178R (L1), N-terminal FLAG tag. Put plainly: LCCA, SPR of light chain tags.
Test [20] deals with Pertuzumab kappa light chain V133G_S176D_T180E (L2), N-terminal HA tag. Put plainly: LCCA, SPR of light chain tags. This is another data set of the same source.
The target is the same in test [21]. Description: LCCA, SPR of light chain tags. The source holds these as a separate data set.
Test [22] shares this target. Put plainly: LCCA, SPR of light chain tags. This is another data set of the same source.
Test [23] has as its target Pertuzumab kappa light chain V133G_S176D_T178E. Description: LCCA, SPR.
The target in test [24] is Pertuzumab kappa light chain V133G_S176D_T180E. Put plainly: LCCA, SPR.
Test [25] has as its target Pertuzumab kappa light chain V133G_L135W_S176D_T180E. Put plainly: LCCA, SPR tag read-out.
In test [26] the target is Pertuzumab kappa light chain V133G_S176D_T178E. Description: LCCA, SPR. This is another data set of the same source.
For test [27], the target named is Pertuzumab kappa light chain V133G_S176D_T180E. Put plainly: LCCA, SPR. The source holds these as a separate data set.
In test [28] the target is CAT-2200 lambda light chain E124Q_T131R. Description: LCCA, SPR.
The target of test [29] is Pertuzumab kappa light chain V133G_L135W_S176D_T180E. Description: LCCA, SPR tag read-out. This is another data set of the same source.
Test [30] deals with CAT-2200 lambda light chain E124Q_T131K. Description: LCCA, SPR.
For test [31], the target named is CAT-2200 lambda light chain S176K_Y178K (L1), N-terminal FLAG tag. Description: LCCA, SPR of light chain tags.
The target of test [32] is CAT-2200 lambda light chain S122D_K129T_S180E. Description: LCCA.
For test [33], the target named is Pertuzumab kappa light chain S121K_Q124R_Q160K_T178R. Put plainly: LCCA.
In test [34] the target is Pertuzumab kappa light chain S121K_Q124R_T178R. Description: LCCA.
Test [35] deals with Pertuzumab kappa light chain Q124R_Q160R_S176A_T178R. Description: LCCA, SPR.
In test [36] the target is Pertuzumab kappa light chain Q124R_S176A_T178R. Description: LCCA, SPR.
For test [37], the target named is Pertuzumab kappa light chain Q124K_L135A_T178R. Description: LCCA.
The target of test [38] is Pertuzumab kappa light chain Q124R_L135A_Q160K_T178R. Description: LCCA.
The target of test [39] is Pertuzumab kappa light chain S121K_Q124E_V133D. Description: LCCA, SPR tag read-out.
Test [40] addresses CAT-2200 lambda light chain T116F_S176F (L1), N-terminal FLAG tag. Description: LCCA, SPR of light chain tags.
Test [41] addresses Pertuzumab kappa light chain V133A (L2), N-terminal HA tag. Put plainly: LCCA, SPR of light chain tags.
Test [42] addresses Pertuzumab light chain (kappa) V133G_S176D_T178E, HA-tagged. Description: LCCA.
In test [43] the target is Pertuzumab light chain (kappa) V133G_S176D_T180E, HA-tagged. Description: LCCA.
For test [44], the target named is Pertuzumab light chain (kappa) V133G_S176D_T178E, HA-tagged. Put plainly: LCCA. The source holds these as a separate data set.
Test [45] has as its target Pertuzumab light chain (kappa) V133G_S176D_T180E, HA-tagged. Description: LCCA. The source holds these as a separate data set.

Chain of Recombinant human IL-17A (human) (Q16552 20-155 limits assumed): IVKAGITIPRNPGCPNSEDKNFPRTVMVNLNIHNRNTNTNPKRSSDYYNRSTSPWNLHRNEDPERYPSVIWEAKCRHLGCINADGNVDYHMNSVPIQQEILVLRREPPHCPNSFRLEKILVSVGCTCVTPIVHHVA

The Kd is the equilibrium constant for the complex coming apart. Consider CAT-2200 Fab, H1 Q179K / L1 K129T_S180E, for which, in [1], the Change in KD of H1L1 Fab vs wild type (log(KD) units) is -0.056. Besides, the Kd in [2] is 0.24 nM.
Regarding CAT-2200 Fab, H1 S186R / L1 K129T_S180E, the Change in KD of H1L1 Fab vs wild type (log(KD) units) in test [1] is -0.088. In addition, the Kd in test [2] turned out to be 0.26 nM.
As for “CAT-2200 lambda light chain K129T_S176E_Y178E”, in test [3], the H1L1:H1L2 median scalar value (ln(H1L1:H1L2)) came to 1.8.
In test [3], CAT-2200 lambda light chain S176E_Y178E gave an H1L1:H1L2 median scalar value (ln(H1L1:H1L2)) of 1.01.
Take “CAT-2200 lambda light chain construct (L1) K129T_S180E, FLAG-tagged”: the H1L1:H1L2 normalized median scalar value ln(r1/f1) in test [4] was 1.94.
Take “CAT-2200 lambda light chain construct (L1) Q38D, FLAG-tagged”: in test [5], the H1L1:H1L2 normalized median scalar value ln(r1/f1) is 0.91.
Take “CAT-2200 lambda light chain construct (L1) Q38E, FLAG-tagged”: in test [5], the H1L1:H1L2 normalized median scalar value ln(r1/f1) came to 0.61.
Take “Pertuzumab Fab heavy chain L45P_L124E_K145T_Q179E”: in test [6], the H2L2:H2L1 median scalar value is 3.9 ln(ratio) and the H2L2:H2L1 normalized median ratio was determined as 97%.
As for “Pertuzumab Fab heavy chain L45P_L124R_Q179K”, the H2L2:H2L1 median scalar value in [7] is 1.84 ln(ratio); in test [8], 1.45 ln(ratio). Further, the values for the H2L2:H2L1 normalized median ratio in test [7], in test [8] and in test [9] were 86%, 81% and 14%, respectively.
In the case of “Pertuzumab Fab heavy chain L45P_L143E_K145T_Q179E”, in test [10], the H2L2:H2L1 median scalar value was 3.81 ln(ratio) and the H2L2:H2L1 normalized median ratio stood at 98%.
“Pertuzumab Fab heavy chain L124E_K145T_Q179E_S186I_S188W”: the H2L2:H2L1 normalized median ratio in test [11] was 84%; in test [12], 88%; in test [13], 16%; in test [14], 12%. Besides, the H2L2:H2L1 normalized median scalar value ln(r1/f1) in test [11] was 1.69; in [12], 2.04.
Take “Pertuzumab Fab heavy chain L124E_K145T_Q179E_S188W”: the H2L2:H2L1 normalized median ratio stood at 91% in test [11], 96% in [12], 9% in test [13] and 4% in test [14]. Moreover, the H2L2:H2L1 normalized median scalar value ln(r1/f1) in [11] is 2.31; in test [12] it was 3.12.
For “Pertuzumab Fab heavy chain L124E_K145T_S186E”, the figures for the H2L2:H2L1 normalized median ratio in [15] and in test [13] were 80% and 20%, respectively. Also, in [15], the H2L2:H2L1 normalized median scalar value ln(r1/f1) was determined as 1.38.
Consider Pertuzumab Fab heavy chain L124K_S188K, for which the H2L2:H2L1 median scalar value in [16] is -0.29 ln.
Turning to “Pertuzumab Fab heavy chain L124R_Q179K (H2), ABD2-His6 tagged”, the H2L2:H2L1 normalized median scalar value ln(r1/f1) in [17] turned out to be 0.63; in test [20], 0.75; in test [21] it was 0.79; in test [22], 0.67. In addition, the H2L2:H2L1 normalized median ratio in test [18] was determined as 34%; in test [19], 31%.
Pertuzumab Fab heavy chain L124R_S186K: the H2L2:H2L1 normalized median scalar value ln(r1/f1) came to 1.22 in [23], 1.32 in test [24], 1.12 in test [26] and 1.47 in [27]. For the same substance, the H2L2:H2L1 median scalar value in [25] and in test [29] was 0 ln(ratio) in each case. The results for the H2L2:H2L1 normalized median ratio in test [28] and in test [30] were 21% and 25%, respectively.
In the case of Pertuzumab Fab heavy chain L124R_S186R, the H2L2:H2L1 normalized median scalar value ln(r1/f1) in test [23] is 1.18; in test [24] it was 1.47; in [26], 1.04; in test [27], 1.5. Besides, the H2L2:H2L1 median scalar value in [29] was 0.23 ln(ratio). In test [30], the H2L2:H2L1 normalized median ratio was found to be 26%.
As to “Pertuzumab Fab heavy chain L124R_S186R (H2), ABD2-His6 tagged”, the H2L2:H2L1 normalized median scalar value ln(r1/f1) was found to be 1.21 in [17], 1.06 in test [20], 1.17 in test [21] and 0.98 in test [22]. Also, the results for the H2L2:H2L1 normalized median ratio in test [31] and in test [18] were 26% and 27%, respectively.
In test [16], Pertuzumab Fab heavy chain L124R_S188K showed an H2L2:H2L1 median scalar value of 0.54 ln.
Consider “Pertuzumab Fab heavy chain L143E_K145T_K228D”, for which the figures for the H2L2:H2L1 normalized median ratio in test [32] and in test [34] were 28% and 72%, respectively. For the same substance, the H2L2:H2L1 median scalar value in test [33] is -0.24 ln; in test [34], 2.19 ln.
For the substance “Pertuzumab Fab heavy chain L143E_K145T_Q179E_S186I_S188W”, the H2L2:H2L1 normalized median scalar value ln(r1/f1) in test [35] stood at 1.42; in test [36], 2.8.
In [37], “Pertuzumab Fab heavy chain L143E_K145T_Q179E_S188F_V190F” came in with an H2L2:H2L1 median scalar value of -0.51 ln.
Take “Pertuzumab Fab heavy chain L143E_K145T_Q179E_S188W”: the H2L2:H2L1 normalized median ratio in [35] is 85%; in [13] it was 15%. Besides, the H2L2:H2L1 normalized median scalar value ln(r1/f1) amounted to 1.71 in test [35] and 2.83 in test [36].
Turning to “Pertuzumab Fab heavy chain L143E_K145T_V190F”, in test [38], the H2L2:H2L1 median scalar value is -0.23 ln.
Turning to “Pertuzumab Fab heavy chain L143I_S186K_K228D”, in [39], the H2L2:H2L1 median scalar value was -0.18 ln(ratio).
On to Pertuzumab Fab heavy chain S186K_K228D, for which, in [39], the H2L2:H2L1 median scalar value was -0.5 ln(ratio).
In the case of “Pertuzumab Fab heavy chain S188F (H2), ABD2-His6 tagged”, the H2L2:H2L1 normalized median ratio in test [40] came to 28%. In test [41], the H2L2:H2L1 normalized median ratio stood at 72% and the H2L2:H2L1 normalized median scalar value ln(r1/f1) amounted to 0.93.
“Pertuzumab heavy chain Fab construct L124R_S186K”: the H2L2:H2L1 normalized median scalar value ln(r1/f1) was 1.12 in [42], 1.47 in test [43], 1.22 in test [44] and 1.32 in [45].
